Assay results reported in patent US20150344570A1 (published 2015).

T1: FcγRIIb extracellular domain with C-terminal His tag (human, UniProt P31994 43-217)
T1 construct: extracellular domain; Soluble receptor used as analyte in Biacore; also called FcgRIIb; CD32B
T1 sequence (looked up): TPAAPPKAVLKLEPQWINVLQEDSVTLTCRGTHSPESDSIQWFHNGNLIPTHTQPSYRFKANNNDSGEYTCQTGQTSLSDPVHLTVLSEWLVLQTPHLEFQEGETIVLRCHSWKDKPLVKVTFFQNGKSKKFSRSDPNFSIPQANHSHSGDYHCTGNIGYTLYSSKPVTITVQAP

T2: FcγRIIb, extracellular domain with C-terminal His tag (human, UniProt P31994 43-217)
T2 construct: extracellular domain; also called 2b; FcgRIIb; not shown: His tag at the C terminus
T2 sequence (looked up): T1 sequence (looked up)

T3: FcγRIIa H (FcgRIIa type H, His at position 131), extracellular domain with C-terminal His tag (human, UniProt P12318 34-217)
T3 construct: extracellular domain; also called 2aH; FcgRIIa H; not shown: His tag at the C terminus
T3 sequence (looked up): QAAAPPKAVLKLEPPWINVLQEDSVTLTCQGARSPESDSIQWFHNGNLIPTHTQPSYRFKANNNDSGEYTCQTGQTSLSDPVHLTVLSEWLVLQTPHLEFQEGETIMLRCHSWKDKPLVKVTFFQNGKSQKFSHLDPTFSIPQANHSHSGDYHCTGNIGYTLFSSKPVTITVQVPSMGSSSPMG

T4: FcγRIIb extracellular domain with C-terminal His tag (human, UniProt P31994 43-217)
T4 construct: extracellular domain; also called FcgRIIb; 2b
T4 sequence (looked up): T1 sequence (looked up)

B1: GpH7-A5/GpH7-B3 variant E269_18N/GpL16-k0 (antibody, human IgG1, kappa)
heavy 1: not shown
heavy 2: not shown
light: DIVMTQSPLSLPVTPGEPASISCQASESLVHSNRNTYLHWYLQKPGQSPQLLIYKVSNRFSGVPDRFSGSGSGTDFTLKISRVEAEDVGVYYCSQNTHVPPTFGQGTKVEIERTVAAPSVFIFPPSDEQLKSGTASVVCLLNNFYPREAKVQWKVDNALQSGNSQESVTEQDSKDSTYSLSSTLTLSKADYEKHKVYACEVTHQGLSSPVTKSFNRGEC
notes: Heterodimerized anti-glypican-3 IgG1; mutation in the GpH7-B3 chain only; also called He Ab E269N
B2: GpH7-A5/GpH7-B3 variant E269_15Y/GpL16-k0 (antibody, human IgG1, kappa)
heavy 1: not shown
heavy 2: not shown
light: B1 light
notes: Heterodimerized anti-glypican-3 IgG1; mutation in the GpH7-B3 chain only; also called He Ab E269Y
B3: GpH7-A5/GpH7-B3 variant E269_05P/GpL16-k0 (antibody, human IgG1, kappa)
heavy 1: not shown
heavy 2: not shown
light: B1 light
notes: Heterodimerized anti-glypican-3 IgG1; mutation in the GpH7-B3 chain only; also called He Ab E269P
B4: GpH7-A5/GpH7-B3 variant S267_04F/GpL16-k0 (antibody, human IgG1, kappa)
heavy 1: not shown
heavy 2: not shown
light: B1 light
notes: Heterodimerized anti-glypican-3 IgG1; mutation in the GpH7-B3 chain only; also called He Ab S267F
B5: GpH7-A5/GpH7-B3 variant E269_02A/GpL16-k0 (antibody, human IgG1, kappa)
heavy 1: not shown
heavy 2: not shown
light: B1 light
notes: Heterodimerized anti-glypican-3 IgG1; mutation in the GpH7-B3 chain only; also called He Ab E269A
B6: GpH7-A5/GpH7-B3 variant V266_16H/GpL16-k0 (antibody, human IgG1, kappa)
heavy 1: not shown
heavy 2: not shown
light: B1 light
notes: Heterodimerized anti-glypican-3 IgG1; mutation in the GpH7-B3 chain only; also called He Ab V266H
B7: GpH7-A5/GpH7-B3 variant E269_11K/GpL16-k0 (antibody, human IgG1, kappa)
heavy 1: not shown
heavy 2: not shown
light: B1 light
notes: Heterodimerized anti-glypican-3 IgG1; mutation in the GpH7-B3 chain only; also called He Ab E269K
B8: GpH7-A5/GpH7-B3 variant S267_20W/GpL16-k0 (antibody, human IgG1, kappa)
heavy 1: not shown
heavy 2: not shown
light: B1 light
notes: Heterodimerized anti-glypican-3 IgG1; mutation in the GpH7-B3 chain only; also called He Ab S267W
B9: GpH7-A5/GpH7-B3 variant E269_16H/GpL16-k0 (antibody, human IgG1, kappa)
heavy 1: not shown
heavy 2: not shown
light: B1 light
notes: Heterodimerized anti-glypican-3 IgG1; mutation in the GpH7-B3 chain only; also called He Ab E269H
B10: GpH7-A5/GpH7-B3 variant V266_18N/GpL16-k0 (antibody, human IgG1, kappa)
heavy 1: not shown
heavy 2: not shown
light: B1 light
notes: Heterodimerized anti-glypican-3 IgG1; mutation in the GpH7-B3 chain only; also called He Ab V266N
B11: GpH7-A5/GpH7-B3 variant H268_06M/GpL16-k0 (antibody, human IgG1, kappa)
heavy 1: not shown
heavy 2: not shown
light: B1 light
notes: Heterodimerized anti-glypican-3 IgG1; mutation in the GpH7-B3 chain only; also called He Ab H268M
B12: GpH7-A5/GpH7-B3 variant E269_08L/GpL16-k0 (antibody, human IgG1, kappa)
heavy 1: not shown
heavy 2: not shown
light: B1 light
notes: Heterodimerized anti-glypican-3 IgG1; mutation in the GpH7-B3 chain only; also called He Ab E269L
B13: GpH7-A5/GpH7-B3 variant H268_11K/GpL16-k0 (antibody, human IgG1, kappa)
heavy 1: not shown
heavy 2: not shown
light: B1 light
notes: Heterodimerized anti-glypican-3 IgG1; mutation in the GpH7-B3 chain only; also called He Ab H268K
B14: GpH7-A5/GpH7-B3 variant E269_03V/GpL16-k0 (antibody, human IgG1, kappa)
heavy 1: not shown
heavy 2: not shown
light: B1 light
notes: Heterodimerized anti-glypican-3 IgG1; mutation in the GpH7-B3 chain only; also called He Ab E269V
B15: GpH7-A5/GpH7-B3 variant V266_20W/GpL16-k0 (antibody, human IgG1, kappa)
heavy 1: not shown
heavy 2: not shown
light: B1 light
notes: He Ab; alteration in one H chain only; also called He Ab
B16: GpH7-A5/GpH7-B3 variant Y300_10E/GpL16-k0 (antibody, human IgG1, kappa)
heavy 1: not shown
heavy 2: not shown
light: B1 light
notes: as for B15
B17: GpH7-A5/GpH7-B3 variant Q295_01G/GpL16-k0 (antibody, human IgG1, kappa)
heavy 1: not shown
heavy 2: not shown
light: B1 light
notes: Heterodimerized anti-glypican-3 IgG1; alteration only in the GpH7-B3 chain, EU numbering; also called He Ab
B18: GpH7-A5/GpH7-B3 variant D270_20W/GpL16-k0 (antibody, human IgG1, kappa)
heavy 1: not shown
heavy 2: not shown
light: B1 light
notes: as for B17

Biological target: T5, FcγRIa extracellular domain with C-terminal His tag (human, UniProt P12314 16-292)
T5 construct: extracellular domain; Soluble receptor used as analyte in Biacore; also called FcgRI; FcgRIa
Experiment: SPR Biacore, antibody captured on antigen-peptide chip, FcγR as analyte
T5 sequence (P12314 16-292): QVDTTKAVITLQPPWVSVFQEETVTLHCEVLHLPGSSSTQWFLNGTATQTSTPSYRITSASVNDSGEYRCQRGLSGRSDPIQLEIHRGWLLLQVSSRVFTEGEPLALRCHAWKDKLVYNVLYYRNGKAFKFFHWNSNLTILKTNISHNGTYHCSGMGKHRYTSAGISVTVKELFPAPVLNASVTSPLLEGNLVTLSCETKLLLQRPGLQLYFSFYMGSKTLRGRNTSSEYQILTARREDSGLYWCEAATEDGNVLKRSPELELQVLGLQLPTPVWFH

He/Con_1a | Binder
102 relative, GpH7-A5/GpH7-B3/GpL16-k0 = 100 | B1
106 relative, GpH7-A5/GpH7-B3/GpL16-k0 = 100 | B2
102 relative, GpH7-A5/GpH7-B3/GpL16-k0 = 100 | B3
97.7 relative, GpH7-A5/GpH7-B3/GpL16-k0 = 100 | B4
104 relative, GpH7-A5/GpH7-B3/GpL16-k0 = 100 | B5
89.1 relative, GpH7-A5/GpH7-B3/GpL16-k0 = 100 | B6
95.2 relative, GpH7-A5/GpH7-B3/GpL16-k0 = 100 | B7
99.4 relative, GpH7-A5/GpH7-B3/GpL16-k0 = 100 | B8
106 relative, GpH7-A5/GpH7-B3/GpL16-k0 = 100 | B9
99.5 relative, GpH7-A5/GpH7-B3/GpL16-k0 = 100 | B10
105 relative, GpH7-A5/GpH7-B3/GpL16-k0 = 100 | B11
104 relative, GpH7-A5/GpH7-B3/GpL16-k0 = 100 | B12
106 relative, GpH7-A5/GpH7-B3/GpL16-k0 = 100 | B13
103 relative, GpH7-A5/GpH7-B3/GpL16-k0 = 100 | B14

Biological target: T1, FcγRIIb extracellular domain with …
Experiment: as above

He/Con_2b | Binder
44.8 relative, GpH7-A5/GpH7-B3/GpL16-k0 = 100 | B1
44.7 relative, GpH7-A5/GpH7-B3/GpL16-k0 = 100 | B2
52.6 relative, GpH7-A5/GpH7-B3/GpL16-k0 = 100 | B3
48 relative, GpH7-A5/GpH7-B3/GpL16-k0 = 100 | B4
49.9 relative, GpH7-A5/GpH7-B3/GpL16-k0 = 100 | B5
57.2 relative, GpH7-A5/GpH7-B3/GpL16-k0 = 100 | B6
17.8 relative, GpH7-A5/GpH7-B3/GpL16-k0 = 100 | B7
57.2 relative, GpH7-A5/GpH7-B3/GpL16-k0 = 100 | B8
38.5 relative, GpH7-A5/GpH7-B3/GpL16-k0 = 100 | B9
69.7 relative, GpH7-A5/GpH7-B3/GpL16-k0 = 100 | B10
65.7 relative, GpH7-A5/GpH7-B3/GpL16-k0 = 100 | B11
42.9 relative, GpH7-A5/GpH7-B3/GpL16-k0 = 100 | B12
83 relative, GpH7-A5/GpH7-B3/GpL16-k0 = 100 | B13
45.1 relative, GpH7-A5/GpH7-B3/GpL16-k0 = 100 | B14

Biological target: T2, FcγRIIb, extracellular domain with …
Experiment: SPR (Biacore), relative binding, GpH7-A5/GpH7-B3/GpL16-k0 = 100

He/Con_2b | Binder
71.9 % of control | B15
134 % of control | B16

Biological target: T3, FcγRIIa H (FcgRIIa type H, His at …)
Experiment: as above

He/Con_2aH | Binder
12 % of control | B15
97.2 % of control | B16

Biological target: T3, FcγRIIa H (FcgRIIa type H, His at …)
Experiment: SPR; He/Con_2aH divided by He/Con_2b (FcγRIIa H binding over FcγRIIb binding)

He_2aH/2b (IIaH/IIb) [ratio] | Binder
0.17 | B15
0.73 | B16

Biological target: T6, FcγRIa extracellular domain with C-terminal His tag (human, UniProt P12314 16-292)
T6 construct: extracellular domain; also called FcgRI; 1a
Experiment: SPR (Biacore); He/Con_1a divided by He/Con_2b (FcγRIa binding over FcγRIIb binding)
Method: (§1) The heterodimerized antibodies He Abs in which one of the H chains was introduced with an alteration were assayed for their binding activities to each activating FcγR and inhibitory FcγR according to the method described in Example 4. […] The activating FcγRs in FIGS. 26, 27, 28, and 29 are FcγRIa, FcγRIIa (R), FcγRIIa (H), and FcγRIIIa, respectively.
(§2) Analysis of interaction between objective antibody and the FcγR was carried out using Biacore T100 (GE Healthcare). HBS-EP+ (GE Healthcare) was used as the running buffer, and the measurement temperature was set to 25° C. Chips produced by immobilizing the antigen peptide by the amine coupling method to a Series S Sencor Chip CM5 (GE Healthcare), or alternatively, chips produced by allowing preliminarily biotinylated antigen peptides to interact with and immobilize onto a Series S Sensor Chip SA (certified) (GE Healthcare) were used. Antibodies of interest were captured onto an antigen peptide-immobilized chip, and allowed to interact to each FcγR diluted with running buffer. To regenerate and repeatedly use the chip, the antibodies captured on the chip were washed off by reacting 10 mM glycine-HCl, pH 1.5.
T6 sequence (P12314 16-292): as above

He_1a/2b (Ia/IIb) [ratio] | Binder
2.12 | B17
1.96 | B18

Biological target: T6, FcγRIa extracellular domain with …
Experiment: SPR (Biacore), antibody captured via antigen peptide, FcγR as analyte; relative binding
Method: as §1, §2

He/Con_1a | Binder
97.6 % of GpH7-A5/GpH7-B3/GpL16-k0 (=100) | B17
68 % of GpH7-A5/GpH7-B3/GpL16-k0 (=100) | B18

Biological target: T4, FcγRIIb extracellular domain with …
Experiment: as above
Method: as §1, §2

He/Con_2b | Binder
46 % of GpH7-A5/GpH7-B3/GpL16-k0 (=100) | B17
34.7 % of GpH7-A5/GpH7-B3/GpL16-k0 (=100) | B18
